In publication PMC2632919 (Nucleic Acids Research, 2008):

B1: human mitochondrial single-stranded DNA-binding protein (HmtSSB) (natural protein, UniProt Q04837 17-148, looked up)
chain: ESETTTSLVLERSLNRVHLLGRVGQDPVLRQVEGKNPVTIFSLATNEMWRSGDSEVYQLGDVSQKTTWHRISVFRPGLRDVAYQYVKKGSRIYLEGKIDYGEYMDKNNVRRQATTIIADNIIFLSDQTKEKE

How the values were obtained:
[1] = biological target: T1, HmtSSB (human mitochondrial SSB) (Homo sapiens, UniProt Q04837 17-148); assay: fluorescence anisotropy
T1 sequence: B1 chain

[2] = biological target: T1, HmtSSB (human mitochondrial SSB); assay: fluorescence anisotropy; remark: listed apart in the source
AUC = biological target: the molecule itself; assay: AUC

| Binder | Kd [1] [nM] | apparent K (half saturation) [2] [nM] | stoichiometry N (AUC) |
| --- | --- | --- | --- |
| GTTTTCCCAGTCACGAC (ssDNA) [17-mer] | 19.2 ± 3.1 | 19.4 ± 4 | – |
| B1 | – | – | 4 |
